Source: the supplement of paper PMC10065799, “High-throughput profiling of sequence recognition by tyrosine kinases and SH2 domains using bacterial peptide display” (eLife, 2023)

Legend:
[1] = biological target: Grb2 SH2 (UniProt P62993); assay: SH2 binding enrichment of the phosphorylated peptide, bacterial display (enrichment ratio); higher = better substrate or ligand; peptides without Tyr show the background
[2] = biological target: c-Src SH2; assay: as above
[3] = biological target: SHP2-C SH2; assay: as above
[4] = biological target: Fes (UniProt P07332); assay: phosphorylation enrichment, bacterial display (enrichment ratio); higher = better substrate or ligand; peptides without Tyr show the background
[5] = biological target: MERTK (UniProt Q12866); assay: as above
[6] = test system: c-Src; assay: as above
[7] = biological target: FGFR1 (UniProt P11362); assay: as above
[8] = test system: Fer (mouse); assay: as above
[9] = test system: c-Abl (mouse); assay: as above
[10] = biological target: FGFR3 (UniProt P22607); assay: as above
[11] = biological target: EPHB2 (UniProt P29323); assay: as above
[12] = test system: AncSZ; assay: as above
[13] = biological target: Hck (UniProt P08631); assay: as above
[14] = biological target: Jak2 (UniProt O60674); assay: as above
[15] = biological target: EPHB1 (UniProt P54762); assay: as above
[16] = biological target: Fyn (UniProt P06241); assay: as above
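Wherever SH2 binding enrichment of the phosphorylated peptide, bacterial display is given: peptide library displayed on the E. coli surface as eCPX fusions, selected cells deep-sequenced, score is each peptide's frequency after selection divided by its frequency in the input.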
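Wherever phosphorylation enrichment, bacterial display is given: 11-residue human phosphosite peptides and single-mutation variants displayed on the E. coli surface, counted by deep sequencing, each peptide's frequency after selection divided by its frequency in the unselected input library; frequency after pTyr selection over input frequency; kinase dosed for 20-30% of maximal phosphorylation in three min.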

Fyn, sequence (P06241 whole entry, looked up, the tested form may be a part): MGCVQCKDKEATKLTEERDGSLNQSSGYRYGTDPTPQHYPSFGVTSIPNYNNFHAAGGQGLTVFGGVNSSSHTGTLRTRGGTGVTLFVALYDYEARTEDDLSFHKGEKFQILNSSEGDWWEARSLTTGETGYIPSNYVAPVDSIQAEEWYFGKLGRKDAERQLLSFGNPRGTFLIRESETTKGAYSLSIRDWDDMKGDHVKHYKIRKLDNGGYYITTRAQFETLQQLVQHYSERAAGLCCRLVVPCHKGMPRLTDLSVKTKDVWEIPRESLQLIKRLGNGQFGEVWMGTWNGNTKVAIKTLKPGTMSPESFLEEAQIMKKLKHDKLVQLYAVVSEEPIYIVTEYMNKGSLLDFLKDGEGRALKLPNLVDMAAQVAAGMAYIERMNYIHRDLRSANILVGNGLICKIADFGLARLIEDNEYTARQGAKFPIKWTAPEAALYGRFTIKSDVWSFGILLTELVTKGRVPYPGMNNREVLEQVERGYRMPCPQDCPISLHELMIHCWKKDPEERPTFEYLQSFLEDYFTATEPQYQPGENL
FGFR3, sequence (P22607 whole entry, looked up): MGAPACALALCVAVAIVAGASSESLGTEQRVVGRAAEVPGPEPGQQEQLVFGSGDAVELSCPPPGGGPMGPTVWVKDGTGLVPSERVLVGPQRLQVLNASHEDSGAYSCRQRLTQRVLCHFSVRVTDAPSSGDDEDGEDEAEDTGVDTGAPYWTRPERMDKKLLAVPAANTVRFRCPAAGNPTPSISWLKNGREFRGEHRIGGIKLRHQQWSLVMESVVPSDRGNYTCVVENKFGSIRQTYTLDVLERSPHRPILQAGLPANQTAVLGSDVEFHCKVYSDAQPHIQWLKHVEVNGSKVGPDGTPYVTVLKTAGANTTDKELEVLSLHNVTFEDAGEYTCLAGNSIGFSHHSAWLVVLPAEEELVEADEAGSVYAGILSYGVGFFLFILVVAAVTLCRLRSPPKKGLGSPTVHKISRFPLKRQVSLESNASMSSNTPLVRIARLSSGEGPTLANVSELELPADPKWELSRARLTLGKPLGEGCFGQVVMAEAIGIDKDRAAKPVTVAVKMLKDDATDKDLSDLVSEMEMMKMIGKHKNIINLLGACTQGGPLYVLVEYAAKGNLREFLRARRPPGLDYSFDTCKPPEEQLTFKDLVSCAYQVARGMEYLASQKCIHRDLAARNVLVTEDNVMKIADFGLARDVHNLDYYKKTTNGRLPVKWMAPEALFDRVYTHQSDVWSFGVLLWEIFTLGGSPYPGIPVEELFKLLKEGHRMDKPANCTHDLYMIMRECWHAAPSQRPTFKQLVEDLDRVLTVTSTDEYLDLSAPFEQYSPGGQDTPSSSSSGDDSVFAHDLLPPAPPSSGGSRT
MERTK, sequence (Q12866 whole entry, looked up): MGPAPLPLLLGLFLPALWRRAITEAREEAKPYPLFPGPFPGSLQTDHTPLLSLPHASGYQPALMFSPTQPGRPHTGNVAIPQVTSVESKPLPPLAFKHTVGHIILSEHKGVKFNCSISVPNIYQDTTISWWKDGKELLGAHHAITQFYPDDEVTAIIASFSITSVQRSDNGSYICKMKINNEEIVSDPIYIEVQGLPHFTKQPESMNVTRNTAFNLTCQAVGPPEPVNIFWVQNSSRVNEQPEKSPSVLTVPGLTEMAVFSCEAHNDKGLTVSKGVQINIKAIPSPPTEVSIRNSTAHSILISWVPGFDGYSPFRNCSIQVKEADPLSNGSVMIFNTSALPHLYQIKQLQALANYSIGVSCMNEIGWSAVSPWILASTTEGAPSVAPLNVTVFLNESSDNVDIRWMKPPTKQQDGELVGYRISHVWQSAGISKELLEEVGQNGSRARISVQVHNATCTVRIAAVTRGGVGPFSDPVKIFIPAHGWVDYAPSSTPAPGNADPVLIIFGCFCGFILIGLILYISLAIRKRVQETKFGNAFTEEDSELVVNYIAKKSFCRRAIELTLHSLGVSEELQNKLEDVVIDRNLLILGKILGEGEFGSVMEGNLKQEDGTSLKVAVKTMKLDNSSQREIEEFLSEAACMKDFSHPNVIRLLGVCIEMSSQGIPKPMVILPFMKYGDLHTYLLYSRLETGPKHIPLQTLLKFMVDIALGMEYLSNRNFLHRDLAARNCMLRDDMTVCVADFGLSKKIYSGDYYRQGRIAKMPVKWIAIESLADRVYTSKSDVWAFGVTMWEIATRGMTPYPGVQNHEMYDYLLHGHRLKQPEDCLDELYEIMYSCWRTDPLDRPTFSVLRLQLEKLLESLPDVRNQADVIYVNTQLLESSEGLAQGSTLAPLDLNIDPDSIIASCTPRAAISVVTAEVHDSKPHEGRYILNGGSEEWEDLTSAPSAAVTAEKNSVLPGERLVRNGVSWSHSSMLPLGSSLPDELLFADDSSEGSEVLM
Hck, sequence (P08631 whole entry, looked up): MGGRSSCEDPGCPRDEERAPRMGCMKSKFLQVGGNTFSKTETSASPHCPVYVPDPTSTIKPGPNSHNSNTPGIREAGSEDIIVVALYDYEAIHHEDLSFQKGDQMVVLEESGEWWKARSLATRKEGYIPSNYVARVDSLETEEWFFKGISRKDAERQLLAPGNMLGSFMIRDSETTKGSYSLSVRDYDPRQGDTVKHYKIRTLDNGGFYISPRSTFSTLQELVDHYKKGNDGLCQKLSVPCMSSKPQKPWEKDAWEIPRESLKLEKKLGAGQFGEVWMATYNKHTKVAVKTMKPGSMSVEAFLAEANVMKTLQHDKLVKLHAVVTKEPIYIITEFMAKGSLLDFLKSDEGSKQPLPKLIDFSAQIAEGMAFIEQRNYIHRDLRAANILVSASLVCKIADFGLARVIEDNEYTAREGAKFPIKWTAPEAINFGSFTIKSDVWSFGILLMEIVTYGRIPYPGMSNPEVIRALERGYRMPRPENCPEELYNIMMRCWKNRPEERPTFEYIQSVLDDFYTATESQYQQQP
Fes, sequence (P07332 whole entry, looked up): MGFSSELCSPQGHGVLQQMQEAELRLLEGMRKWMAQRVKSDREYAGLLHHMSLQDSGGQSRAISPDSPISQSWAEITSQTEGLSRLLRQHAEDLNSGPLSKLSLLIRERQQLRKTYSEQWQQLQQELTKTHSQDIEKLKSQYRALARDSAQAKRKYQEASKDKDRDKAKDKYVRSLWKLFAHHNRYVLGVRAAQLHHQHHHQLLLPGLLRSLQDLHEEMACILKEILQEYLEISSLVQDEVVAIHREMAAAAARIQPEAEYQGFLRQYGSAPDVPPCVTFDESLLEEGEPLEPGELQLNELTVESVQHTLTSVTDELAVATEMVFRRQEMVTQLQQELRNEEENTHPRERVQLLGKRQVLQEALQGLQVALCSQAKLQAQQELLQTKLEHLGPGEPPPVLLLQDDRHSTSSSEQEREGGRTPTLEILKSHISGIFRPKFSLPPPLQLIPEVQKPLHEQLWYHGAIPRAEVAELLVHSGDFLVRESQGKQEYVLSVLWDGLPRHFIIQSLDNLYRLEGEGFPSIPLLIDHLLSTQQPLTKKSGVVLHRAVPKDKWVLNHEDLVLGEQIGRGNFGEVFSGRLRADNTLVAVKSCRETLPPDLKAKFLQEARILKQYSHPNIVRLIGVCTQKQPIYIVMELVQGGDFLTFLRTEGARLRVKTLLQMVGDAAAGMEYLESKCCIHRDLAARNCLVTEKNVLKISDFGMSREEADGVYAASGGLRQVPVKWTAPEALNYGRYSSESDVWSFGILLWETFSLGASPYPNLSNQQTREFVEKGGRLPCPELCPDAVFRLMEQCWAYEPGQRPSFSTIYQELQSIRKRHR
EPHB2, sequence (P29323 whole entry, looked up): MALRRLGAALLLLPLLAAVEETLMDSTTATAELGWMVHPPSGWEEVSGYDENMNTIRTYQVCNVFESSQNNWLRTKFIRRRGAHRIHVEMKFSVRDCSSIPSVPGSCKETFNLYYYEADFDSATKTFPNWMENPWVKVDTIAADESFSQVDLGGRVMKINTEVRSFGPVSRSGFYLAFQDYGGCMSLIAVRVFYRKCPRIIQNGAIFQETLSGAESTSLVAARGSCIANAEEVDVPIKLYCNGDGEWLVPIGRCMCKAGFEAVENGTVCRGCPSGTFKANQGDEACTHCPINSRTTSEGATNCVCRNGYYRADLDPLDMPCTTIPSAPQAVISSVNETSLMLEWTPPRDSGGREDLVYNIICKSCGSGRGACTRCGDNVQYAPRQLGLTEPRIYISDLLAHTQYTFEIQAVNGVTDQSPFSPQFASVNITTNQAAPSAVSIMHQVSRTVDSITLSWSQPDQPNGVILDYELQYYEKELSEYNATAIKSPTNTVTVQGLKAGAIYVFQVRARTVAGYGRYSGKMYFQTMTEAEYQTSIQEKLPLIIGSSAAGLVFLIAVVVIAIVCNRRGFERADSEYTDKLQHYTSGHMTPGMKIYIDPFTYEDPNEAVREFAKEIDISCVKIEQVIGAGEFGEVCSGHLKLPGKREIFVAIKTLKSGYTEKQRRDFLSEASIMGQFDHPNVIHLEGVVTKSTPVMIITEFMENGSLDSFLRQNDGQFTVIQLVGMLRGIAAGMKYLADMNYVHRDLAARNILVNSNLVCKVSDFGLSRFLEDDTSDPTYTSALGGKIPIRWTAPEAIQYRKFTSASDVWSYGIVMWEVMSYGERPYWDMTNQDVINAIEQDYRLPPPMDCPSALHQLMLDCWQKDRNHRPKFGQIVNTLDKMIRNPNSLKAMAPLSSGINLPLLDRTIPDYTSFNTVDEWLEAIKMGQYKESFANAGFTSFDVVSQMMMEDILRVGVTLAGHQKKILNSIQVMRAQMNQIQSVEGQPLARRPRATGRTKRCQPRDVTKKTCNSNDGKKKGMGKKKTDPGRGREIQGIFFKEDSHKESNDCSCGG

SH2 binding enrichment [1] | SH2 binding enrichment [2] | SH2 binding enrichment [3] | Sequence | phosphorylation enrichment [4] | phosphorylation enrichment [5] | phosphorylation enrichment [6] | phosphorylation enrichment [7] | phosphorylation enrichment [8] | phosphorylation enrichment [9] | phosphorylation enrichment [10] | phosphorylation enrichment [11] | phosphorylation enrichment [12] | phosphorylation enrichment [13] | phosphorylation enrichment [14] | phosphorylation enrichment [15] | phosphorylation enrichment [16]
1.03 | 0.704 | 0.833 | GTQCSYLLSRK [UGT3A1_Y123] | 0.676 | 0.436 | 0.42 | 0.482 | 0.43 | 0.569 | 0.441 | 0.554 | 0.634 | 0.392 | 0.655 | 0.427 | 0.329
0.845 | 0.622 | 0.631 | GVASDYKCVDP [VPS13B_Y1991_I1994V] | 1.16 | 0.476 | 0.458 | 0.533 | 0.548 | 0.791 | 0.821 | 0.62 | 1.05 | 0.537 | 0.964 | 0.624 | 0.504
0.614 | 0.575 | 0.636 | GVVVPYEPPEV [TP53_Y220_S215G] | 0.905 | 0.387 | 0.352 | 0.39 | 0.563 | 0.695 | 0.581 | 0.559 | 0.892 | 0.41 | 1.25 | 0.493 | 0.366
0.972 | 3.06 | 0.639 | HDRNTYEKFLE [TF_Y666_G671E_YF] | 1.03 | 0.848 | 0.818 | 0.432 | 0.56 | 0.561 | 0.522 | 0.64 | 1.07 | 0.491 | 0.859 | 0.525 | 0.741
1.18 | 2.25 | 0.672 | HEGKIYEYNQV [ZNF665_Y162] | 1.56 | 6.51 | 4.23 | 0.746 | 18.4 | 5.38 | 0.81 | 0.987 | 1.98 | 2.04 | 1.39 | 1.06 | 3.02
0.901 | 0.749 | 0.531 | HNELFYEAAEH [VANGL1_Y345_E347A_YF] | 1.55 | 1.46 | 1.89 | 0.826 | 9.73 | 1.47 | 0.884 | 0.842 | 1.85 | 1.51 | 0.944 | 0.586 | 1.05
0.599 | 0.645 | 0.733 | HNELFYEEAEH [VANGL1_Y345_YF] | 1.35 | 0.525 | 0.484 | 0.809 | 4.23 | 0.727 | 0.964 | 0.932 | 1.89 | 0.974 | 0.981 | 0.819 | 0.942
0.97 | 0.603 | 0.962 | HQNGMYGLHQD [SGSH_Y89] | 0.886 | 0.678 | 0.647 | 0.673 | 0.656 | 0.726 | 0.516 | 0.591 | 0.643 | 0.564 | 0.726 | 0.346 | 0.568
1.36 | 0.341 | 0.654 | HRGHLYLAIEY [TEK_Y899_Y897H] | 1.56 | 0.495 | 0.344 | 0.942 | 0.741 | 0.599 | 1.23 | 1.16 | 1.51 | 0.572 | 0.977 | 1.08 | 0.447
0.819 | 0.491 | 0.558 | IDGLEYLHSPG [STK11_Y166_Q170P] | 0.69 | 0.431 | 0.37 | 0.467 | 0.426 | 0.5 | 0.543 | 0.584 | 0.931 | 0.454 | 0.746 | 0.377 | 0.44

The remaining lines, values behind:

Sequence | SH2 binding enrichment [1] | SH2 binding enrichment [2] | SH2 binding enrichment [3] | phosphorylation enrichment [4] | phosphorylation enrichment [5] | phosphorylation enrichment [6] | phosphorylation enrichment [7] | phosphorylation enrichment [8] | phosphorylation enrichment [9] | phosphorylation enrichment [10] | phosphorylation enrichment [11] | phosphorylation enrichment [12] | phosphorylation enrichment [13] | phosphorylation enrichment [14] | phosphorylation enrichment [15] | phosphorylation enrichment [16]
GRQGIYTKNER [GPR143_Y231_E233K] | 1.01 | 0.493 | 0.802 | 0.466 | 0.359 | 0.327 | 0.447 | 0.556 | 0.422 | 0.371 | 0.329 | 0.422 | 0.327 | 0.46 | 0.357 | 0.386
GSRGKYSSGFR [ATM_Y332] | 1.15 | 0.833 | 0.912 | 0.603 | 0.559 | 0.649 | 0.657 | 0.793 | 0.547 | 0.453 | 0.36 | 0.512 | 0.338 | 0.62 | 0.318 | 0.38
GTHCHYKAPIV [FZD9_Y569_T573I] | 0.995 | 0.953 | 0.953 | 0.858 | 0.4 | 0.395 | 0.531 | 0.58 | 3.44 | 0.636 | 0.532 | 1.32 | 0.544 | 0.658 | 0.513 | 0.428
HFGCVYFGTLL [MET_Y1093_H1094Y_YF] | 0.857 | 0.535 | 0.714 | 1.23 | 0.528 | 3.7 | 1.01 | 0.458 | 0.695 | 1.51 | 0.699 | 1.77 | 0.763 | 1.18 | 0.917 | 0.899
HFVDEYDLTIE [KRAS_Y32_P34L] | 0.874 | 0.633 | 0.847 | 2.16 | 0.812 | 0.922 | 0.752 | 0.841 | 1.4 | 1.14 | 0.423 | 2.56 | 0.749 | 2.13 | 0.711 | 0.811
HGEAFYSEVKP [PAK5_Y182_YF] | 0.887 | 1.22 | 0.868 | 1.04 | 9.01 | 2.27 | 3.57 | 12.3 | 1.02 | 2.49 | 1.37 | 1 | 4.38 | 0.609 | 2.01 | 2.95
HICTAYELVLA [DHCR24_Y190] | 1.01 | 0.573 | 0.708 | 1.74 | 1.56 | 2.77 | 3.12 | 8.27 | 1.13 | 2.2 | 1.02 | 1.8 | 0.779 | 1.6 | 0.891 | 0.598
HSLRDYKEALM [ADA2_Y337_H335R] | 0.933 | 0.467 | 0.699 | 1.4 | 0.649 | 0.56 | 0.601 | 0.44 | 0.751 | 0.881 | 0.45 | 0.746 | 0.679 | 1.03 | 0.775 | 0.388
HYGNNYTDVLQ [MACC1_Y803_R804T] | 0.812 | 2.72 | 3.32 | 1.76 | 0.935 | 0.816 | 1.14 | 2.53 | 2.17 | 1.05 | 1.45 | 1.59 | 1.12 | 1.35 | 5.63 | 0.635
HYPDVYAREQL [ALX3_Y181] | 0.802 | 0.564 | 0.471 | 0.912 | 0.494 | 0.709 | 0.651 | 0.36 | 0.511 | 0.58 | 0.513 | 0.481 | 1.14 | 0.892 | 0.518 | 0.906
IAKNPYDPPGR | 0.765 | 0.543 | 0.482 | 0.689 | 0.426 | 0.38 | 0.405 | 0.37 | 0.455 | 0.48 | 0.333 | 0.56 | 0.316 | 0.635 | 0.363 | 0.344
IALNSCHSRNC [IFNGR1_Y397_Y397C] | 1 | 0.628 | 0.645 | 0.506 | 0.406 | 0.401 | 0.486 | 0.379 | 0.36 | 0.371 | 0.351 | 0.48 | 0.358 | 0.375 | 0.337 | 0.359
IALSKYGRVKW [FGF6_Y186_R191W] | 1.26 | 1.33 | 1.89 | 0.985 | 0.365 | 0.437 | 0.387 | 0.413 | 0.748 | 0.357 | 0.329 | 0.603 | 0.438 | 0.56 | 0.316 | 0.306
ICRWVYPLTPE [EIF2B5_Y319_R315C] | 0.883 | 0.538 | 0.795 | 1.36 | 0.505 | 0.578 | 0.516 | 0.405 | 0.739 | 0.733 | 0.542 | 1.29 | 0.585 | 1.14 | 0.5 | 0.528
IDDNEYAYLKA [HNF4A_Y286] | 0.863 | 0.467 | 0.545 | 0.991 | 0.423 | 0.677 | 1 | 0.507 | 0.571 | 0.868 | 0.601 | 1.24 | 0.707 | 0.849 | 0.507 | 0.564
IDDNQYAFLKA [HNF4A_Y286_E285Q_YF] | 0.677 | 0.803 | 0.631 | 0.839 | 0.84 | 0.553 | 2.5 | 0.852 | 1.02 | 1.61 | 0.487 | 0.823 | 1.64 | 0.709 | 0.494 | 0.604
IEKLPYIDKWF [CPS1_Y872_T871P] | 0.782 | 0.642 | 0.679 | 1.01 | 0.359 | 0.479 | 0.51 | 0.333 | 0.574 | 0.567 | 0.482 | 0.953 | 0.456 | 0.833 | 0.472 | 0.368
IFCIQYNICAF [MYH4_Y820_R823C] | 1.7 | 1.21 | 1.47 | 1.53 | 0.421 | 0.513 | 0.451 | 0.538 | 1.14 | 0.807 | 0.9 | 1.28 | 0.45 | 1.56 | 0.686 | 0.421
IFCIQYNIRAF [MYH4_Y820] | 1.08 | 0.685 | 1.07 | 1.76 | 0.436 | 0.599 | 0.525 | 0.596 | 1.35 | 1.08 | 0.678 | 1.57 | 0.608 | 1.57 | 0.821 | 0.445
IFRASYVPFAA [RBM47_Y541_G538R_YF] | 0.8 | 0.542 | 0.681 | 1.04 | 0.389 | 0.384 | 0.508 | 0.388 | 0.527 | 0.635 | 0.548 | 0.859 | 0.506 | 0.784 | 0.645 | 0.463
IGCHAYGDQFR [IDH1_Y135_R132C_YF] | 0.825 | 0.516 | 0.577 | 1.04 | 0.497 | 0.611 | 0.529 | 0.55 | 0.82 | 0.659 | 0.532 | 0.933 | 0.51 | 0.933 | 0.516 | 0.495
IGNGFYFRVFS [MYBPC3_Y1136_YF] | 0.964 | 0.466 | 1.06 | 1.38 | 0.374 | 0.361 | 0.438 | 0.519 | 0.818 | 0.756 | 0.568 | 1.05 | 0.45 | 1.43 | 0.64 | 0.365
IGVDSYSVCKR [RPS6KA3_Y433_G431D] | 0.908 | 0.971 | 0.627 | 0.577 | 0.338 | 0.322 | 0.381 | 0.366 | 0.417 | 0.405 | 0.418 | 0.537 | 0.387 | 0.462 | 0.402 | 0.347
